Molecular target: T1, FcγRIIb extracellular domain with C-terminal His tag (human, UniProt P31994 43-217)
T1 construct: extracellular domain; also called FcgRIIb; 2b; not shown: His tag at the C terminus
T1 sequence (looked up): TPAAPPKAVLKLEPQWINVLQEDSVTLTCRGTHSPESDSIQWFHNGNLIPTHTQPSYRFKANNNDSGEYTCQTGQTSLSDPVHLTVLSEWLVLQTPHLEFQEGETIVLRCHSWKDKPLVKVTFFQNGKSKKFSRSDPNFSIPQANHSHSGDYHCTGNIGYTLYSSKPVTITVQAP
Assay: SPR, relative binding, HoCon Ab = 100
Protocol: Analysis of interaction between objective antibody and the FcγR was carried out using Biacore T100 (GE Healthcare). HBS-EP+ (GE Healthcare) was used as the running buffer, and the measurement temperature was set to 25° C. Chips produced by immobilizing the antigen peptide by the amine coupling method to a Series S Sencor Chip CM5 (GE Healthcare), or alternatively, chips produced by allowing preliminarily biotinylated antigen peptides to interact with and immobilize onto a Series S Sensor Chip SA (certified) (GE Healthcare) were used. Antibodies of interest were captured onto an antigen peptide-immobilized chip, and allowed to interact to each FcγR diluted with running buffer. To regenerate and repeatedly use the chip, the antibodies captured on the chip were washed off by reacting 10 mM glycine-HCl, pH 1.5.

Row | Binder | Ho/Con_2b
1 | GpH7-B3 variant L328_13S/GpL16-k0 (antibody, human IgG1, kappa, also called Ho Ab L328_13S) heavy: not shown light: DIVMTQSPLSLPVTPGEPASISCQASESLVHSNRNTYLHWYLQKPGQSPQLLIYKVSNRFSGVPDRFSGSGSGTDFTLKISRVEAEDVGVYYCSQNTHVPPTFGQGTKVEIERTVAAPSVFIFPPSDEQLKSGTASVVCLLNNFYPREAKVQWKVDNALQSGNSQESVTEQDSKDSTYSLSSTLTLSKADYEKHKVYACEVTHQGLSSPVTKSFNRGEC | 147 % of control
2 | GpH7-B3 variant P238_09D/GpL16-k0 (antibody, human IgG1, kappa, also called Ho Ab P238_09D) heavy: not shown light: DIVMTQSPLSLPVTPGEPASISCQASESLVHSNRNTYLHWYLQKPGQSPQLLIYKVSNRFSGVPDRFSGSGSGTDFTLKISRVEAEDVGVYYCSQNTHVPPTFGQGTKVEIERTVAAPSVFIFPPSDEQLKSGTASVVCLLNNFYPREAKVQWKVDNALQSGNSQESVTEQDSKDSTYSLSSTLTLSKADYEKHKVYACEVTHQGLSSPVTKSFNRGEC | 207 % of control
3 | GpH7-B3 variant S337_16H/GpL16-k0 (antibody, human IgG1, kappa, also called Ho Ab S337_16H) heavy: not shown light: DIVMTQSPLSLPVTPGEPASISCQASESLVHSNRNTYLHWYLQKPGQSPQLLIYKVSNRFSGVPDRFSGSGSGTDFTLKISRVEAEDVGVYYCSQNTHVPPTFGQGTKVEIERTVAAPSVFIFPPSDEQLKSGTASVVCLLNNFYPREAKVQWKVDNALQSGNSQESVTEQDSKDSTYSLSSTLTLSKADYEKHKVYACEVTHQGLSSPVTKSFNRGEC | 103 % of control
4 | GpH7-B3 variant S267_06M/GpL16-k0 (antibody, human IgG1, kappa, also called Ho Ab S267_06M) heavy: not shown light: DIVMTQSPLSLPVTPGEPASISCQASESLVHSNRNTYLHWYLQKPGQSPQLLIYKVSNRFSGVPDRFSGSGSGTDFTLKISRVEAEDVGVYYCSQNTHVPPTFGQGTKVEIERTVAAPSVFIFPPSDEQLKSGTASVVCLLNNFYPREAKVQWKVDNALQSGNSQESVTEQDSKDSTYSLSSTLTLSKADYEKHKVYACEVTHQGLSSPVTKSFNRGEC | 187 % of control
5 | GpH7-B3 variant P238_15Y/GpL16-k0 (antibody, human IgG1, kappa, also called Ho Ab P238_15Y) heavy: not shown light: DIVMTQSPLSLPVTPGEPASISCQASESLVHSNRNTYLHWYLQKPGQSPQLLIYKVSNRFSGVPDRFSGSGSGTDFTLKISRVEAEDVGVYYCSQNTHVPPTFGQGTKVEIERTVAAPSVFIFPPSDEQLKSGTASVVCLLNNFYPREAKVQWKVDNALQSGNSQESVTEQDSKDSTYSLSSTLTLSKADYEKHKVYACEVTHQGLSSPVTKSFNRGEC | 114 % of control
6 | GpH7-B3 variant P331_15Y/GpL16-k0 (antibody, human IgG1, kappa, also called Ho Ab P331_15Y) heavy: not shown light: DIVMTQSPLSLPVTPGEPASISCQASESLVHSNRNTYLHWYLQKPGQSPQLLIYKVSNRFSGVPDRFSGSGSGTDFTLKISRVEAEDVGVYYCSQNTHVPPTFGQGTKVEIERTVAAPSVFIFPPSDEQLKSGTASVVCLLNNFYPREAKVQWKVDNALQSGNSQESVTEQDSKDSTYSLSSTLTLSKADYEKHKVYACEVTHQGLSSPVTKSFNRGEC | 111 % of control
7 | GpH7-B3 variant P238_04F/GpL16-k0 (antibody, human IgG1, kappa, also called Ho Ab P238_04F) heavy: not shown light: DIVMTQSPLSLPVTPGEPASISCQASESLVHSNRNTYLHWYLQKPGQSPQLLIYKVSNRFSGVPDRFSGSGSGTDFTLKISRVEAEDVGVYYCSQNTHVPPTFGQGTKVEIERTVAAPSVFIFPPSDEQLKSGTASVVCLLNNFYPREAKVQWKVDNALQSGNSQESVTEQDSKDSTYSLSSTLTLSKADYEKHKVYACEVTHQGLSSPVTKSFNRGEC | 209 % of control
8 | GpH7-B3 variant T335_15Y/GpL16-k0 (antibody, human IgG1, kappa, also called Ho Ab T335_15Y) heavy: not shown light: DIVMTQSPLSLPVTPGEPASISCQASESLVHSNRNTYLHWYLQKPGQSPQLLIYKVSNRFSGVPDRFSGSGSGTDFTLKISRVEAEDVGVYYCSQNTHVPPTFGQGTKVEIERTVAAPSVFIFPPSDEQLKSGTASVVCLLNNFYPREAKVQWKVDNALQSGNSQESVTEQDSKDSTYSLSSTLTLSKADYEKHKVYACEVTHQGLSSPVTKSFNRGEC | 104 % of control
9 | GpH7-B3 variant S239_03V/GpL16-k0 (antibody, human IgG1, kappa, also called Ho Ab S239_03V) heavy: not shown light: DIVMTQSPLSLPVTPGEPASISCQASESLVHSNRNTYLHWYLQKPGQSPQLLIYKVSNRFSGVPDRFSGSGSGTDFTLKISRVEAEDVGVYYCSQNTHVPPTFGQGTKVEIERTVAAPSVFIFPPSDEQLKSGTASVVCLLNNFYPREAKVQWKVDNALQSGNSQESVTEQDSKDSTYSLSSTLTLSKADYEKHKVYACEVTHQGLSSPVTKSFNRGEC | 108 % of control
10 | GpH7-B3 variant S239_10E/GpL16-k0 (antibody, human IgG1, kappa, also called Ho Ab S239_10E) heavy: not shown light: DIVMTQSPLSLPVTPGEPASISCQASESLVHSNRNTYLHWYLQKPGQSPQLLIYKVSNRFSGVPDRFSGSGSGTDFTLKISRVEAEDVGVYYCSQNTHVPPTFGQGTKVEIERTVAAPSVFIFPPSDEQLKSGTASVVCLLNNFYPREAKVQWKVDNALQSGNSQESVTEQDSKDSTYSLSSTLTLSKADYEKHKVYACEVTHQGLSSPVTKSFNRGEC | 175 % of control
11 | GpH7-B3 variant P331_16H/GpL16-k0 (antibody, human IgG1, kappa, also called Ho Ab P331_16H) heavy: not shown light: DIVMTQSPLSLPVTPGEPASISCQASESLVHSNRNTYLHWYLQKPGQSPQLLIYKVSNRFSGVPDRFSGSGSGTDFTLKISRVEAEDVGVYYCSQNTHVPPTFGQGTKVEIERTVAAPSVFIFPPSDEQLKSGTASVVCLLNNFYPREAKVQWKVDNALQSGNSQESVTEQDSKDSTYSLSSTLTLSKADYEKHKVYACEVTHQGLSSPVTKSFNRGEC | 100 % of control
12 | GpH7-B3 variant T335_10E/GpL16-k0 (antibody, human IgG1, kappa, also called Ho Ab T335_10E) heavy: not shown light: DIVMTQSPLSLPVTPGEPASISCQASESLVHSNRNTYLHWYLQKPGQSPQLLIYKVSNRFSGVPDRFSGSGSGTDFTLKISRVEAEDVGVYYCSQNTHVPPTFGQGTKVEIERTVAAPSVFIFPPSDEQLKSGTASVVCLLNNFYPREAKVQWKVDNALQSGNSQESVTEQDSKDSTYSLSSTLTLSKADYEKHKVYACEVTHQGLSSPVTKSFNRGEC | 108 % of control
13 | GpH7-B3 variant T335_07I/GpL16-k0 (antibody, human IgG1, kappa, also called Ho Ab T335_07I) heavy: not shown light: DIVMTQSPLSLPVTPGEPASISCQASESLVHSNRNTYLHWYLQKPGQSPQLLIYKVSNRFSGVPDRFSGSGSGTDFTLKISRVEAEDVGVYYCSQNTHVPPTFGQGTKVEIERTVAAPSVFIFPPSDEQLKSGTASVVCLLNNFYPREAKVQWKVDNALQSGNSQESVTEQDSKDSTYSLSSTLTLSKADYEKHKVYACEVTHQGLSSPVTKSFNRGEC | 104 % of control
14 | GpH7-B3 variant S267_19Q/GpL16-k0 (antibody, human IgG1, kappa, also called Ho Ab S267_19Q) heavy: not shown light: DIVMTQSPLSLPVTPGEPASISCQASESLVHSNRNTYLHWYLQKPGQSPQLLIYKVSNRFSGVPDRFSGSGSGTDFTLKISRVEAEDVGVYYCSQNTHVPPTFGQGTKVEIERTVAAPSVFIFPPSDEQLKSGTASVVCLLNNFYPREAKVQWKVDNALQSGNSQESVTEQDSKDSTYSLSSTLTLSKADYEKHKVYACEVTHQGLSSPVTKSFNRGEC | 185 % of control
15 | GpH7-B3 variant P331_20W/GpL16-k0 (antibody, human IgG1, kappa, also called Ho Ab P331_20W) heavy: not shown light: DIVMTQSPLSLPVTPGEPASISCQASESLVHSNRNTYLHWYLQKPGQSPQLLIYKVSNRFSGVPDRFSGSGSGTDFTLKISRVEAEDVGVYYCSQNTHVPPTFGQGTKVEIERTVAAPSVFIFPPSDEQLKSGTASVVCLLNNFYPREAKVQWKVDNALQSGNSQESVTEQDSKDSTYSLSSTLTLSKADYEKHKVYACEVTHQGLSSPVTKSFNRGEC | 111 % of control
16 | GpH7-B3 variant S324_06M/GpL16-k0 (antibody, human IgG1, kappa, also called Ho Ab S324_06M) heavy: not shown light: DIVMTQSPLSLPVTPGEPASISCQASESLVHSNRNTYLHWYLQKPGQSPQLLIYKVSNRFSGVPDRFSGSGSGTDFTLKISRVEAEDVGVYYCSQNTHVPPTFGQGTKVEIERTVAAPSVFIFPPSDEQLKSGTASVVCLLNNFYPREAKVQWKVDNALQSGNSQESVTEQDSKDSTYSLSSTLTLSKADYEKHKVYACEVTHQGLSSPVTKSFNRGEC | 104 % of control
